Target: PARP-1 (recombinant, unmodified) (UniProt P09874 1-1014)
Experiment: EMSA

Sequence of PARP-1 (recombinant, unmodified) (P09874 whole entry): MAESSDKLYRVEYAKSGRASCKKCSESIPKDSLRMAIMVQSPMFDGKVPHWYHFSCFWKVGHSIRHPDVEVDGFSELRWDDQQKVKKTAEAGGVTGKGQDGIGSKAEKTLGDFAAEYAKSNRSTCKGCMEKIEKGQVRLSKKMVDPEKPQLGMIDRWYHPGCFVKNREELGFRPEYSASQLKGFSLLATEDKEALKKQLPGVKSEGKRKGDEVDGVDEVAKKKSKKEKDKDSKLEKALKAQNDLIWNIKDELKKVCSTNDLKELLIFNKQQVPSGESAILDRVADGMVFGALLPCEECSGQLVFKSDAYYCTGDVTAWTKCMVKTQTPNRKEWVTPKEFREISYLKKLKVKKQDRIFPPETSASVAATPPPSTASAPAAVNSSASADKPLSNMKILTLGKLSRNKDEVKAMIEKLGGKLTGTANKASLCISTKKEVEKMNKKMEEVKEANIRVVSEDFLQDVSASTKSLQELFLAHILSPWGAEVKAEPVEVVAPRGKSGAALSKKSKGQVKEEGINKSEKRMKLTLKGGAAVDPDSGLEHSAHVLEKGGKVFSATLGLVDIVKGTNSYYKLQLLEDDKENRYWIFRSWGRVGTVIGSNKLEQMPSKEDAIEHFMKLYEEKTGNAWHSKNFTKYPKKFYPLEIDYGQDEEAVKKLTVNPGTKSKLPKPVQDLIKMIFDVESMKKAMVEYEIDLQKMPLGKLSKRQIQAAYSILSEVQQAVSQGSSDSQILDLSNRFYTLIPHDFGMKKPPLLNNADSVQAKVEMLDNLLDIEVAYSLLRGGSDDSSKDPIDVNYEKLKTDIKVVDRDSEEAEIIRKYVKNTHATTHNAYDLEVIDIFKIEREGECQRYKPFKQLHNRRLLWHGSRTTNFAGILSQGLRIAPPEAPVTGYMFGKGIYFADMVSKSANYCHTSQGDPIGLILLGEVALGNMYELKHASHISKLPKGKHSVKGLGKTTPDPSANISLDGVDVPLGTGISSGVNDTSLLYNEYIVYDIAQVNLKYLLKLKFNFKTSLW

B1: NS (MOR poly(C) sequence) (dsDNA)
DNA 1: CTTCTGCTCCCCCCCCCCCTACCC
DNA 2: GGGTAGGGGGGGGGGGAGCAGAAG
- binding result: binds
